Assay results from article PMC11555649, “Yop1 stability and membrane curvature generation propensity are controlled by its oligomerisation interface” (Biochemical Journal, 2024).

B1: Yop1 (wildtype, full length, Saccharomyces cerevisiae) (natural protein, UniProt Q12402 1-180, looked up)
chain: MSEYASSIHSQMKQFDTKYSGNRILQQLENKTNLPKSYLVAGLGFAYLLLIFINVGGVGEILSNFAGFVLPAYLSLVALKTPTSTDDTQLLTYWIVFSFLSVIEFWSKAILYLIPFYWFLKTVFLIYIALPQTGGARMIYQKIVAPLTDRYILRDVSKTEKDEIRASVNEASKATGASVH
notes: Yop1, Saccharomyces cerevisiae, UniProt Q12402, full length gene in pCold I; Integral membrane protein, kept in DDM detergent micelles; tags removed with TEV protease; also called WT; wildtype Yop1; source: E. coli C43, purified (Strep-Tactin, TEV cleavage, His-tag resin flow-through, SEC) in DDM; not shown: (His)9, N-terminal, cleaved; Twin-Strep-tag, N-terminal, cleaved
B2: Yop1 A72E variant (natural protein, Saccharomyces cerevisiae, UniProt Q12402 1-180, looked up)
chain: MSEYASSIHSQMKQFDTKYSGNRILQQLENKTNLPKSYLVAGLGFAYLLLIFINVGGVGEILSNFAGFVLPEYLSLVALKTPTSTDDTQLLTYWIVFSFLSVIEFWSKAILYLIPFYWFLKTVFLIYIALPQTGGARMIYQKIVAPLTDRYILRDVSKTEKDEIRASVNEASKATGASVH
notes: Yop1, Saccharomyces cerevisiae, UniProt Q12402, full length gene in pCold I, with A72E; Homologous to the REEP1 SPG31 mutation A20E; source: E. coli C43, purified (Strep-Tactin, TEV cleavage, His-tag resin flow-through, SEC) in DDM; not shown: (His)9, N-terminal, cleaved; Twin-Strep-tag, N-terminal, cleaved
B3: Yop1 P71L variant (natural protein, Saccharomyces cerevisiae, UniProt Q12402 1-180, looked up)
chain: MSEYASSIHSQMKQFDTKYSGNRILQQLENKTNLPKSYLVAGLGFAYLLLIFINVGGVGEILSNFAGFVLLAYLSLVALKTPTSTDDTQLLTYWIVFSFLSVIEFWSKAILYLIPFYWFLKTVFLIYIALPQTGGARMIYQKIVAPLTDRYILRDVSKTEKDEIRASVNEASKATGASVH
notes: Yop1, Saccharomyces cerevisiae, UniProt Q12402, full length gene in pCold I, with P71L; Homologous to the REEP1 SPG31 mutation P19L; prone to aggregation in preparative SEC; source: E. coli C43, purified (Strep-Tactin, TEV cleavage, His-tag resin flow-through, SEC) in DDM; not shown: (His)9, N-terminal, cleaved; Twin-Strep-tag, N-terminal, cleaved
B4: Yop1 S75F variant (natural protein, Saccharomyces cerevisiae, UniProt Q12402 1-180, looked up)
chain: MSEYASSIHSQMKQFDTKYSGNRILQQLENKTNLPKSYLVAGLGFAYLLLIFINVGGVGEILSNFAGFVLPAYLFLVALKTPTSTDDTQLLTYWIVFSFLSVIEFWSKAILYLIPFYWFLKTVFLIYIALPQTGGARMIYQKIVAPLTDRYILRDVSKTEKDEIRASVNEASKATGASVH
notes: Yop1, Saccharomyces cerevisiae, UniProt Q12402, full length gene in pCold I, with S75F; Homologous to the REEP1 SPG31 mutation S23F; source: E. coli C43, purified (Strep-Tactin, TEV cleavage, His-tag resin flow-through, SEC) in DDM; not shown: (His)9, N-terminal, cleaved; Twin-Strep-tag, N-terminal, cleaved

How the values were obtained:
[1] = molecular target: the molecule itself; test: SEC-MALS; self-association; 100 µl at 1-1.4 mg/ml on Superdex 200 10/300GL; 20 mM HEPES pH 7.5, 150 mM NaCl, 5% glycerol; protein in DDM micelles, protein and detergent masses separated
[2] = molecular target: the molecule itself; test: native gel or EMSA; Blue native PAGE, NativePAGE 4-16% Bis-Tris gel, ~0.8 mg/ml protein in DDM micelles, 150 V, 4°C; self-association

Protein	stoichiometry N [1]	stoichiometry N [2]
B1	2	–
B2	2	–
B3	–	2
B4	–	2
